Experimental data reported in IntAct's records for PubMed 16418290.

B1: Caspase recruitment domain-containing protein 6 (Homo sapiens), Q9BX69 (parent)
chain: MATESTPSEIIERERKKLLEILQHDPDSILDTLTSRRLISEEEYETLENVTDLLKKSRKLLILVQKKGEATCQHFLKCLFSTFPQSAAICGLRHEVLKHENTVPPQSMGASSNSEDAFSPGIKQPEAPEITVFFSEKEHLDLETSEFFRDKKTSYRETALSARKNEKEYDTPEVTLSYSVEKVGCEVPATITYIKDGQRYEELDDSLYLGKEEYLGSVDTPEDAEATVEEEVYDDPEHVGYDGEEDFENSETTEFSGEEPSYEGSETSLSLEEEQEKSIEERKKVFKDVLLCLNMDRSRKVLPDFVKQFSLDRGCKWTPESPGDLAWNFLMKVQARDVTARDSILSHKVLDEDSKEDLLAGVENLEIRDIQTINPLDVLCATMLCSDSSLQRQVMSNMYQCQFALPLLLPDAENNKSILMLGAMKDIVKKQSTQFSGGPTEDTEKFLTLMKMPVISFVRLGYCSFSKSRILNTLLSPAQLKLHKIFLHQDLPLLVLPRQISDGLVEITWCFPDSDDRKENPFFQKPVALANLRGNLESFWTQFGFLMEVSSAVFFFTDCLGEKEWDLLMFLGEAAIERCYFVLSSQARESEEAQIFQRILNLKPAQLLFWERGDAGDRRKNMEGLQAALQEVMFSSCLRCVSVEDMAALARELGIQVDEDFENTQRIQVSSGENMAGTAEGEGQQRHSQLKSSSKSQALMPIQEPGTQCELSQNLQNLYGTPVFRPVLENSWLFPTRIGGNFNHVSLKASWVMGRPFGSEQRPKWFHPLPFQNAGAQGRGKSFGIQSFHPQIFYSGERFMKFSRVARGCHSNGTFGRLPRPICQHVQACPERPQMMGTLERSRAVASKIGHSYSLDSQPARAVGKPWPQQACTRVTELTEATGKLIRTSHIGKPHPQSFQPAAATQKLRPASQQGVQMKTQGGASNPALQIGSHPMCKSSQFKSDQSNPSTVKHSQPKPFHSVPSQPKSSQTKSCQSQPSQTKPSPCKSTQPKPSQPWPPQSKPSQPRPPQPKSSSTNPSQAKAHHSKAGQKRGGKH

Variants of: B1
Conditions: with ripk2_human RIPK2, O43353
Chain of ripk2_human RIPK2, O43353 (O43353 whole entry): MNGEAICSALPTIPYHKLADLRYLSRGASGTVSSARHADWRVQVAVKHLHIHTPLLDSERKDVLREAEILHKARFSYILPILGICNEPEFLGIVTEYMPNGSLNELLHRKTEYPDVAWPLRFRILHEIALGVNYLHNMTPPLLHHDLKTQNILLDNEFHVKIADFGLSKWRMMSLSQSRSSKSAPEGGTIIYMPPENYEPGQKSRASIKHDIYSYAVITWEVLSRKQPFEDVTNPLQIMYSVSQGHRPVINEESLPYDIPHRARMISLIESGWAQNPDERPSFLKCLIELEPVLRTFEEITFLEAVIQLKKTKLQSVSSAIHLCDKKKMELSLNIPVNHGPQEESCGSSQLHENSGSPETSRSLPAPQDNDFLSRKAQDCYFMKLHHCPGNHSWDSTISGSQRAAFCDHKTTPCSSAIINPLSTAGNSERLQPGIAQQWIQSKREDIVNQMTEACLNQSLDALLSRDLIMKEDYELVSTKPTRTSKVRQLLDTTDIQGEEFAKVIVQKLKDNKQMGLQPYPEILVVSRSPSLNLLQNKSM

effect of a mutation on the interaction | Variant
increasing interaction strength | L30R;D31N;L33R
